Patent publication US12065471B2, “B*44 restricted peptides for use in immunotherapy against cancers and related methods” (Immatics Biotechnologies GmbH, priority 2018, dated 2024)

Biological target: HLA-B*44:05 (Homo sapiens, UniProt P01889, A223V/A65T/A93T/A95T/D201E/D98Y/E176V/E187L/E204Q/E69K/G107R/H137Y/K202T/L105A/L119I/N104T/N87E/Q56L/Q94N/R106L/R155S/R180D/S101N/S121R/S35A/S48T/T118I/V36M/W191S/Y91S)
Experiment: MHC binding assay (UV-ligand exchange, β2m ELISA, peptide exchange yield)
Conditions: binding to HLA-B*44:05
Description: Candidate peptides for T cell-based therapies according to the present invention were further tested for their MHC binding capacity (affinity). The individual peptide-MHC complexes were produced by UV-ligand exchange, where a UV-sensitive peptide is cleaved upon UV-irradiation and exchanged with the peptide of interest as analyzed. Only peptide candidates that can effectively bind and stabilize the peptide-receptive MHC molecules prevent dissociation of the MHC complexes. To determine the yield of the exchange reaction, an ELISA was performed based on the detection of the light chain (β2m) of stabilized MHC complexes. The assay was performed as generally described in Rodenko et al. (Rodenko et al., 2006)
96 well MAXISorp plates (NUNC) were coated over night with 2 μg/ml streptavidin in PBS at room temperature, washed 4× and blocked for 1 h at 37° C. in 2% BSA containing blocking buffer. Refolded HLA-A*02:01/MLA-001 monomers served as standards, covering the range of 15-500 ng/ml. Peptide-MHC monomers of the UV-exchange reaction were diluted 100-fold in blocking buffer. Samples were incubated for 1h at 37° C., washed four times, incubated with 2 μg/ml HRP conjugated anti-β2m for 1h at 37° C., washed again and detected with TMB solution that is stopped with […]. Absorption was measured at 450 nm.

| Peptide exchange (MHC class I binding score, peptide exchange yield) | Substance |
| --- | --- |
| ++++ (>75% = ++++) | 119 (VEVKYEGHW; listed as Homo sapiens) [compound 119] |
| ++ (>20% = ++) | 239 (DEDYTYLIL; listed as Homo sapiens) [compound 239] |
| ++++ (>75% = ++++) | 390 (GEYNKHAQLW; listed as Homo sapiens) [compound 390] |
| ++ (>20% = ++) | 328 (HENGVLTKF; listed as Homo sapiens) [compound 328] |
| +++ (>50 = +++) | 264 (RELIKAIGL; listed as Homo sapiens) [compound 264] |
| +++ (>50 = +++) | 275 (GEQPPEGQW; listed as Homo sapiens) [compound 275] |
| ++++ (>75% = ++++) | 320 (AENPLNIFY; listed as Homo sapiens) [compound 320] |
| ++ (>20% = ++) | 364 (EECDKAYSF; listed as Homo sapiens) [compound 364] |
| +++ (>50 = +++) | 416 (DELMRKESQW; listed as Homo sapiens) [compound 416] |
| +++ (>50 = +++) | 188 (AEFVPKADLL; listed as Homo sapiens) [compound 188] |
| ++++ (>75% = ++++) | 192 (LEIMTNLVTL; listed as Homo sapiens) [compound 192] |
| +++ (>50 = +++) | 428 (AEEKAAVTSL; listed as Homo sapiens) [compound 428] |
| ++ (>20% = ++) | 150 (SEVFHVSEA; listed as Homo sapiens) [compound 150] |
| ++++ (>75% = ++++) | 441 (QEVAQVASAIL; listed as Homo sapiens) [compound 441] |
| ++ (>20% = ++) | 137 (EKGLISAF; listed as Homo sapiens) [compound 137] |
| +++ (>50 = +++) | 117 (SEVPVDSHY; listed as Homo sapiens) [compound 117] |
| +++ (>50 = +++) | 375 (HEATFGEKRF; listed as Homo sapiens) [compound 375] |
| ++ (>20% = ++) | 303 (GEDAHLTQY; listed as Homo sapiens) [compound 303] |
| + (>10% = +) | 278 (DQVTVFLHF; listed as Homo sapiens) [compound 278] |
| +++ (>50 = +++) | 238 (VEDDNYKLSL; listed as Homo sapiens) [compound 238] |
| +++ (>50 = +++) | 77 (QETLAESTW; listed as Homo sapiens) [compound 77] |

| Peptide exchange (MHC class I binding score, peptide exchange yield) | Substance |
| --- | --- |
| ++++ (>75% = ++++) | 385 (LEHPFLVNLW; listed as Homo sapiens) [compound 385] |
| +++ (>50 = +++) | 134 (IEIKDRLQL; listed as Homo sapiens) [compound 134] |
| +++ (>50 = +++) | 230 (AEALVDGKW; listed as Homo sapiens) [compound 230] |
| ++++ (>75% = ++++) | 404 (AEREQVIKL; listed as Homo sapiens) [compound 404] |
| +++ (>50 = +++) | 167 (AETENRYCV; listed as Homo sapiens) [compound 167] |
| ++ (>20% = ++) | 34 (AEPPILYSEY; listed as Homo sapiens) [compound 34] |
| ++++ (>75% = ++++) | 220 (EEEVFSGMKL; listed as Homo sapiens) [compound 220] |
| ++++ (>75% = ++++) | 221 (KEAFGPQAL; listed as Homo sapiens) [compound 221] |
| +++ (>50 = +++) | 367 (TEFAVKLKI; listed as Homo sapiens) [compound 367] |
| + (>10% = +) | 96 (MDELEEGESY; listed as Homo sapiens) [compound 96] |
| +++ (>50 = +++) | 190 (NEAGEVSKHF; listed as Homo sapiens) [compound 190] |
| ++ (>20% = ++) | 81 (GEKATMQNL; listed as Homo sapiens) [compound 81] |
| +++ (>50 = +++) | 263 (AEQLRGFNA; listed as Homo sapiens) [compound 263] |
| +++ (>50 = +++) | 146 (MEELRMLSF; listed as Homo sapiens) [compound 146] |
| ++++ (>75% = ++++) | 307 (YEQLLKVVTW; listed as Homo sapiens) [compound 307] |
| +++ (>50 = +++) | 127 (RYFDENIQKFIW; listed as Homo sapiens) [compound 127] |
| ++ (>20% = ++) | 396 (MELLFLDTF; listed as Homo sapiens) [compound 396] |
| +++ (>50 = +++) | 450 (REIENGNSF; listed as Homo sapiens) [compound 450] |
| +++ (>50 = +++) | 340 (GELAPSHGL; listed as Homo sapiens) [compound 340] |
| ++ (>20% = ++) | 94 (SLAELIAKDW; listed as Homo sapiens) [compound 94] |
| +++ (>50 = +++) | 406 (GETVVLKNM; listed as Homo sapiens) [compound 406] |

| Peptide exchange (MHC class I binding score, peptide exchange yield) | Substance |
| --- | --- |
| ++++ (>75% = ++++) | 185 (TEANVQALF; listed as Homo sapiens) [compound 185] |
| ++++ (>75% = ++++) | 304 (RELGFTEATGW; listed as Homo sapiens) [compound 304] |
| ++ (>20% = ++) | 302 (EGEDAHLTQY; listed as Homo sapiens) [compound 302] |
| ++ (>20% = ++) | 65 (SESMVESKF; listed as Homo sapiens) [compound 65] |
| +++ (>50 = +++) | 315 (MEQQSQEY; listed as Homo sapiens) [compound 315] |
| ++++ (>75% = ++++) | 201 (MEILWKTLT; listed as Homo sapiens) [compound 201] |
| +++ (>50 = +++) | 393 (SETILAVGL; listed as Homo sapiens) [compound 393] |
| ++++ (>75% = ++++) | 294 (EEWEWIQKL; listed as Homo sapiens) [compound 294] |
| ++ (>20% = ++) | 197 (NEILTIHF; listed as Homo sapiens) [compound 197] |
| ++++ (>75% = ++++) | 343 (SEFDLEQVW; listed as Homo sapiens) [compound 343] |
| +++ (>50 = +++) | 447 (KEFGLDSVEL; listed as Homo sapiens) [compound 447] |
| ++ (>20% = ++) | 10 (SEYPTKNYV; listed as Homo sapiens) [compound 10] |
| +++ (>50 = +++) | 397 (EECGKAFSVF; listed as Homo sapiens) [compound 397] |
| +++ (>50 = +++) | 449 (RENDFEPKF; listed as Homo sapiens) [compound 449] |
| ++ (>20% = ++) | 131 (RESHLTEIRQY; listed as Homo sapiens) [compound 131] |
| +++ (>50 = +++) | 290 (AECILSKRL; listed as Homo sapiens) [compound 290] |
| ++ (>20% = ++) | 262 (YENILNAI; listed as Homo sapiens) [compound 262] |
| +++ (>50 = +++) | 410 (RELEEEFYSL; listed as Homo sapiens) [compound 410] |
| ++ (>20% = ++) | 256 (RLLPGKVVW; listed as Homo sapiens) [compound 256] |
| +++ (>50 = +++) | 160 (AEIATTGQLY; listed as Homo sapiens) [compound 160] |
| +++ (>50 = +++) | 186 (EEIFAHLGL; listed as Homo sapiens) [compound 186] |
